T1: αA66-80 peptide (human)
T1 peptide: SDRDKFVIFLDVKHF

B1: αB-crystallin C-terminal peptide 164–174 (peptide)
peptide: EEKPAVTAAPK
B2: C-terminal biotinylated αA66-80 (peptide)
peptide: SDRDKFVIFLDVKHFK
modifications: biotin on the added C-terminal lysine (SDRDKFVIFLDVKHFK-Biotin)
B3: recombinant human αB-crystallin (natural protein, UniProt P02511 1-175, looked up)
chain: MDIAIHHPWIRRPFFPFHSPSRLFDQFFGEHLLESDLFPTSTSLSPFYLRPPSFLRAPSWFDTGLSEMRLEKDRFSVNLDVKHFSPEELKVKVLGDVIEVHGKHEERQDEHGFISREFHRKYRIPADVDPLTITSSLSSDGVLTVNGPRKQVSGPERTIPITREEKPAVTAAPKK

Tests used:
αA66-80 peptide = molecular target: T1, αA66-80 peptide; test: bis-ANS fluorescence
[1] = molecular target: B3; test: cross-linking
cross-linking = molecular target: the molecule itself; test: cross-linking

Binder: B1
binding result (αA66-80 peptide): binds

Binder: B2
binding result [1]: binds

Binder: B3
binding result (cross-linking): binds
